Experiments:
[1] = target: T1, SACE_7301 (Saccharopolyspora erythraea A226?) (UniProt A4FQY4); assay: EMSA; conditions: 10 mM Tris pH 7.5, 5 mM MgCl2, 50 mM EDTA (so in the source), 60 mM KCl, 10 mM DTT, 10% glycerol, 150 ng probe (legend: 10 ng), 0.5-4 uM protein; on ice 10 min; 8% …
T1 sequence: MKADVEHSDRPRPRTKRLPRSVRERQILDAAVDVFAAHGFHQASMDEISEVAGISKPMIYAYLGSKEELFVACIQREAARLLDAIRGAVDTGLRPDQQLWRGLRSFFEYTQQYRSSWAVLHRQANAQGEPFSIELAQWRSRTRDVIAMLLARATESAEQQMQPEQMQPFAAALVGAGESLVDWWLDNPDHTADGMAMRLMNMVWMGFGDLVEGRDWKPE

[2] = target: T2, BldD (Saccharopolyspora erythraea A226?) (UniProt A4FBF9); assay: EMSA; conditions: 10 mM Tris pH 7.5, 5 mM MgCl2, 50 mM EDTA (so in the source), 60 mM KCl, 10 mM DTT, 10% glycerol, 150 ng probe (legend: 10 ng), 0.5-4 uM protein; on ice 10 min; 8% …
T2 sequence: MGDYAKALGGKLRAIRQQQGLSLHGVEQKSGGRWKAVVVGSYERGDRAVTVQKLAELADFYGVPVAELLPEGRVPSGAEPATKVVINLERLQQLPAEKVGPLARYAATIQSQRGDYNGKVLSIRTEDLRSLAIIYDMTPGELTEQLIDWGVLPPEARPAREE

Row | Sequence | binding [1] | binding [2]
1 | GCGTCCCCCTACTCGACGACCACGCAATGGGCGAACAATATAGGAAGGATCAAGAGGTTGACATCGCCTCGTCGAGCCAACGAACCTGTGAACATCTGCATGTTGACAAGATCAACGGCGGCTACCTACTGTGGTGGCCCAGTGACGGGTTGCCGCACATCGCGCTGGGGAGATTCTTTGAATTTCGCCCGTAGCACCGACCTGGAAAGCGAGCAAATGCTCCG (double strand) [PeryAI promoter fragment] | binds | binds
2 | GCGAGTGTCCGTTCGAGTGGCGGCTTGCGCCCGATGCTAGTCGCGGTTGATCGGCGATCGCAGGTGCACGCGGTCGATCTTGACGGCTGGCGAGAGGTGCGGGGAGGATCTGACCGACGCGGTCCACACGTGGCACCGCGATGCTGTTGTGGGCTGGACAATCGTGCCGGTTGGTAGGATCCAGCG (double strand) [PermE promoter fragment] | binds | binds
